Measurements reported in patent US20170281807A1 (UNIVERSITY OF TENNESSEE RESEARCH FOUNDATION, published 2017).
Ends that are not written are not given here.

B1: murine 11-1F4 monoclonal antibody (antibody, V domains shown)
VH: QVQLKESGPGLVAPSQSLSITCTVSGFSLSSYGVSWVRQPPGKGLEWLGVIWGDGSTNYHPNLMSRLSISKDISKSQVLFKLNSLQTDDTATYYCVTLDYWGQGTSVTVSS
VL: DVVMTQTPLSLPVSLGDQASISCRSSQSLVHRNGNTYLHWYLQKPGQSPKLLIYKVSNRFSGVPDRFSGSGSGTDFTLKISRVEAEDLGLYFCFQTTYVPNTFGGGTKLEIK
B2: peptide p66 (11-1F4 peptope) (peptide)
peptide: KAQKAQAKQAKQAQKAQKAQAKQAKQAQKAQKAQAKQAKQSVTVVTKHYAAFPENLLI
modifications: also: 125I-labeled in pull-down and in vivo work
notes: also called peptope p66

What was measured:
[1] = biological target: B2; experiment: EuLISA, peptide coated, 11-1F4 titrated from 100 nM
[2] = biological target: T1, synthetic Aβ(1-40) amyloid fibrils (UniProt P05067 672-711); experiment: EuLISA, fibrils coated, p66 added and washed, detected by 11-1F4
T1 construct: domain: Aβ(1-40); Fibrillar aggregate; 1-40 counts on the Aβ peptide, not on the precursor

[3] = biological target: BSA (UniProt P02769 25-607); experiment: EuLISA, BSA-blocked wells without fibrils, p66 then 11-1F4
BSA, sequence (P02769 25-607 limits assumed): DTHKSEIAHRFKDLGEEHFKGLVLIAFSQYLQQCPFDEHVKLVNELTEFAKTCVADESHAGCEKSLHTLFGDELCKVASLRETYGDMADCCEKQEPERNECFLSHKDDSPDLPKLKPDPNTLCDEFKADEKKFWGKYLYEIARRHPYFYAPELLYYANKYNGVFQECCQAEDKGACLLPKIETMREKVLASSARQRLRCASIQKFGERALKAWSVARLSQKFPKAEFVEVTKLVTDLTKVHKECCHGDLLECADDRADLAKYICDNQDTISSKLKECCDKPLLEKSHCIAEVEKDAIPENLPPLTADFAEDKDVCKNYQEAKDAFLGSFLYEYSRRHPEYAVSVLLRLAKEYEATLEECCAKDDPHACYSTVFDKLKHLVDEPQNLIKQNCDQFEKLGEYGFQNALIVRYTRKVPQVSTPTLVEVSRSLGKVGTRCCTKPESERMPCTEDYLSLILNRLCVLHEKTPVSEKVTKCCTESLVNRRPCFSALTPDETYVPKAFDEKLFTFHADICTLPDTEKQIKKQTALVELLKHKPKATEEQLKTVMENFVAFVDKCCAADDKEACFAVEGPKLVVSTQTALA

T1 sequence (P05067 672-711 limits assumed): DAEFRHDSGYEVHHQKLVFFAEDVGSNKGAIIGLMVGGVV

Binder | EC50 [1] | binding result [2] | binding result [3]
B1 | ~0.5 nM | – | –
B2 | – | binds | no binding (tested: 100 µl of a 0.83 mM stock solution)
